Experimental data: the DeepSol protein solubility set

Test: soluble on expression in E. coli; label from the status in PepcDB or PDB records
In the case of “MGSDKIHHHHHHMRTIWTPTLENFSGSKYEQLANAIGDAITRGELAPGSKLPPQRRLADALGVTLGTVTRAYTKAIYRGWVEARVGDGTYVRMAEPKSTGPLDLATCQQAVTDQAAFLGEVMSRMGRDPVRLAGLLDYHTANLEAQQETVLTFLARSGVDDFGGKLVFTHGAQQGLFAALAAICEPGDWVLHEAWCYPGLNRAAEALSLNLCGVSLLDDGLNLDELAACIDKHKPKAIYLTPNSQNPGCIGYSGAQRQRILALARAHDIIIIEDDVNYCTSQEWSAPIWQLAADAQSVVYLSSLSKRFAGGIRFGFMLLPARLQPRVNRIIHAHCWMVSPLLIEIGCELIRSGGIHQHRDAWIASLQQRFLTMAESLDLEAKSRGLNGRLTLPEGFRASNVIAALAAKGILARSLADFGGPANGIRFSLGRIPRGEEDEVFDRIQSTLTDVLNQGIAVV”, the “soluble on expression in E. coli” value is reported as “not soluble”. With “MGSDKIHHHHHHMRVGVIGVGCSRFGRRDDAVIQELAYEAVKEALDDAGITQDEVELSVVGSVNTRGYELMPAVPVNEYCGFAGKGPLRVEAACATGAAAVYTAYTSIASGMADVAIAIGVEKMTEVDTATSLAIGGRAGNYLWEFHQYGTTFPAYYAMHATAHMAKYGTTEEQMAKVAVKAHRNAARNPKAHFQKEIAVEDVLNSRYITYPLKLYDCSPISDGSAAAILASEEKIRELGIDDVVWIDSVGYASDTSNMTNRESFVGLKATVLAREMAYRKAGIEEPVKQLDFATVHDCFTIAEIMAYEDLGFCRKGEGGKLVESGETELGGKLPVNTFGGLKAKGHPLAATGVAMVYEIVKQLRGEAGELQVELRNNRALLHNVGGTGHFAFVMIFGR” the “soluble on expression in E. coli” value was “not soluble”. With “MGSDKIHHHHHHMRVSQRVVMSMTTPIDQFKGKQLDIINWWRRYPDKQTIIADGAVRSGKTFAMSISYVLWSMIVFDREQFGIAGKTIGSLRRNVIRPLKQTLQQVGFSVVDRRSENMLEISLDGRTNLYYLFGGKDESSQDLIQGITLAGMFFDEAALMPQSFVNQATARVSVTGGKYWFNMNPEGPYHWFKTDWIDQADDKRALRLHFVMTDNPSLSDEVIDRYEHMYSGVFYQRYILGQWVLADGIVYDNFDKDEMVSNPSQQPSRYYVSVDYGTQNPTVFLLWGKCGSVWYCLKEYYYDGRHSSRQKTDDEYARDFSQFVGDIRCEVIVDPSAASFIVKLRERRYRVIKADNDVLNGIRETQTAMNSGEIKFTPGLTNLFKEFASYVWDDKASQKGEDKVVKAHDHAMDAMRYFVMQVIKRRNAAHTFKNTSKYF” the “soluble on expression in E. coli” value was “not soluble”. With “MGSDKIHHHHHHMRWGGASPIEATVRDLSLSRIYMRVTGDSLSTNAQDCPSSEILRIAVVSSPRSGNSWIRSTLAGALSMQEIAIHNYLDAPAVLPQRCFLQIHWYREPNFQAWLRENQFRVLTVARHPLDVLVSALHYIRYEPGTSRWLEGNVKLPGELANASPSSPEFLEYALGMGAEDLLSITYQWWNDPEVLRLRYEDAVANPEVVLGNQIAALGGSAQDVVPWLARLSIDKMRATPNRHGWQGSPGLWRRLIVPQDAIRIYRRHRRIFDTLGYTIRPYFLTRASAYRNWMERL” the “soluble on expression in E. coli” value was “not soluble”. In the case of “MGSDKIHHHHHHMRYNRTETLLQLALELSASHSGLSLTDIEQMFGVGRRTAQRMRDAIERVFPQLEEVPQPDRTKRWRLPNRVLGRVSDLNIDDIMAMETAAEILERDNRPDAAASVRRAGAKVRASLRPDDARRIEPDLEALMQAEGIAMRPGPRPKVRPELVETLRHAIMGCREIRVQYRRRYSTNEHSRVVQPYGLLYGQRHYLLAFVPEENEVRSYSFPNIIGVEETGNSFVRDPAFSLTEYAARSFGLYQEEPYEVMWRFSPDAATDAKEFLFHPSQTHESQPDGSLIVRFKAGGLLEMAWHLYQWGDAVEVLEPEKLRAIHERSKVSWVARP”, the “soluble on expression in E. coli” value is reported as “not soluble”. In the case of “MGSDKIHHHHHHMSAEDYKNLPVTVEKPIPVVYDLGNLAAFDSNVLDKNDLDSSNARREEKIKSLTRDNVQLLINQLLSLPMKTTTESVGGTGGQSSVMTLLQLPDPTTDLPREKPLPKAKAMTKWEKFAAKKGIKPKERAGKMIYDEASGEWVPKWGYKGANKKLDDQWLVEVDDKVKGTDNELIDPRTLNRAERKRLVKKNEKQQRRNMKNAL”, the “soluble on expression in E. coli” value is reported as “not soluble”. In the case of “MGSDKIHHHHHHMSANTQSMIFTVYGDYIRHYGNQIWVGSLIRLLKEFGHNEQAVRVAVSRMVKQGWLTSQKQGTKSFYSLTPRGVERMEEAARRIYKSTPHVWDGKWRTLMYTIPEDKRQIRDELRKELSWSGFGNLSNGVWISPNPLEKEAERLIEAYDIKAYIDFFVGEYHGPQQDQSLVERAFPLDELQERYEQFIAEYSRRYIVHQSRIQLGEMDEEQCFVERTTLVHEYRKFLFTDPGLPQELLPDEWSGHHAALLFEQYYRLLAEPASRFFESIFRETHDVTQKSADYDASEHPLFAER”, the “soluble on expression in E. coli” value is reported as “not soluble”. With “MGSDKIHHHHHHMSAPPLCVTVCGGGRTGHLNAILFAQRPGVRVKLLTRNHHIAARQDAVLTGLLPDGATLTASAGMVTDDPAVALRDADIVIITVPAHARPSLLREIVAHLPEGKAVYVGAIPGFCGFDWLAGALLAQRPNAVIWGMKDVPHTAFALDPGVSVRMGGVKQRLYVGCHAREQRAARQALLSHLNRLYDASVELLDSYLEITLTPGNPIMHSAVIYGLIGPYGQWHGRALPTPLCWWTDCPELSAYFLERADEESQRLCQAVARRLGVDLSSVKPLRQEIVDAYGDQIQDPSTMLSVLRTNRAYADIEAPLVPTSGGYLVDTSSRAFHEDVAYGLATLVEMARRLGVDTPHLREIFEWNVTYMGGLRGSALDYFPEFWPR” the “soluble on expression in E. coli” value was “not soluble”. For “MGSDKIHHHHHHMSDIESLGEAAGLFEEPEDFLPPPPKPHFAEYQRSHITKESKSDVKDIKLRLVGTSPLWGHLLWNAGIYTANHLDSHPELIKGKTVLELGAAAALPSVICALNGAQMVVSTDYPDPDLMQNIDYNIKSNVPEDFNNVSTEGYIWGNDYSPLLAHIEKIGNNNGKFDLIILSDLVFNHTEHHKLLQTTKDLLAEKGQALVVFSPHRPKLLEKDLEFFELAKNEFHLVPQLIEMVNWKPMFDEDEETIEVRSRVYAYYLTHEK”, the “soluble on expression in E. coli” value was “not soluble”. In the case of “MGSDKIHHHHHHMSDLLEWQDLAQLPVSIFKDYVTDAQDAEKPFIWTEVFLREINRSNQEIILHIWPMTKTVILGMLDRELPHLELAKKEIISRGYEPVVRNFGGLAVVADEGILNFSLVIPDVFERKLSISDGYLIMVDFIRSIFSDFYQPIEHFEVETSYCPGKFDLSINGKKFAGLAQRRIKNGIAVSIYLSVCGDQKGRSQMISDFYKIGLGDTGSPIAYPNVDPEIMANLSDLLDCPMTVEDVIDRMLISLKQVGFNDRLLMIRPDLVAEFNRFQAKSMANKGMVSRDE”, the “soluble on expression in E. coli” value is reported as “not soluble”. With “MGSDKIHHHHHHMSDLQSLQPKLLWQWFDQICAIPHPSYKEEQLAQFIINWAKTKGFFAERDEVGNVLIRKPATVGMENRKPVVLQAHLDMVPQANEGTNHNFDQDPILPYIDGDWVKAKGTTLGADNGIGMASALAVLESNDIAHPELEVLLTMTEERGMEGAIGLRPNWLRSEILINTDTEENGEIYIGCAGGENADLELPIEYQVNNFEHCYQVVLKGLRGGHSGVDIHTGRANAIKVLLRFLAELQQNQPHFDFTLANIRGGSIRNAIPRESVATLVFNGDITVLQSAVQKFADVIKAELALTEPNLIFTLEKVEKPQQVFSSQCTKNIIHCLNVLPNGVVRNSDVIENVVETSLSIGVLKTEDNFVRSTMLVRSLIESGKSYVASLLKSLASLAQGNINLSGDYPGWEPQSHSDILDLTKTIYAQVLGTDPEIKVIHAGLECGLLKKIYPTIDMVSIGPTIRNAHSPDEKVHIPAVETYWKVLTGILAHIPSR” the “soluble on expression in E. coli” value was “not soluble”. In the case of “MGSDKIHHHHHHMSDPIPAAPTDNGVPVSLRSSRGRGWHGFGASLLEIRAGTYRIPAAEHHRIGVHIGSPVRADCVCDGARVSRIQAHGDVDVIPAGLPGEWTDSADCRILHIALSDTFVRRTFDQLELKPSQAQIRRRLQVRDPRLQHIAWAMAAELEAEDASDPLYAESLCTALVARLADSQPAFREHRRTLAPKAAARVIDYVEANLERRMTLAELAALVSISVPHFKVLFRETLGMPVHQYVVRRRVERAKALLLEGRLGISQIALEAGFAHQSHMAHWMNRVLGATPTEIARSGARGGLRLAYDGEDR”, the “soluble on expression in E. coli” value is reported as “not soluble”. In the case of “MGSDKIHHHHHHMSDSTTPETIIVIGASSLMAQAFIAKTFTQQAYTDQTVIQQASSQQSKRHDTSPLQIITVSRQNKLILHDLTDNISHHHFSCDYQQASIEQCVTNIAAIAGKVTRIVMCNGILHSKNPQSADSILGPHSANDSTLMPEKRIEDIDALSLEQLFYANSIVPMLWLSALTSLLSLPRHKVAGEQKCVISILSARVGSISDNRLGGWYGYRASKAALNMLIKTTAVEYARRLKRVKLIAFHPGTTDTPLSKPFQANVPAGKLFTPEFVASQLYNIMADIEPNGEASYLDWQGKEISW”, the “soluble on expression in E. coli” value is reported as “not soluble”. In the case of “MGSDKIHHHHHHMSEKRQPWVQDLLWRLEALGFDLFIGAVRMMGVDRASDFGGWLGRTFGPMSGAHKVASRNLKLAFPDKDAAWHETILREQWDGLGRSFAEFPLMDKILPSTGRVEVVGKERLVEIAENRIPVVFVSGHLSNWEVMPAAIVDSGVICEMTYRAANNPYVDKRIKESRFRYGVRLFAPKGGDGARELLEGMKQGKSVALMNDQKFNSGVAAPFFGHLAHTAPGPTRLAIRFGTVLQPMSVQRLKGARFRAVVHDPIVPPKTGDRTADIEAGVRMINAFMEDRIRERPAEWFWVHRRWPNEVYAALAERERAAESSS”, the “soluble on expression in E. coli” value is reported as “not soluble”. With “MGSDKIHHHHHHMSERLDENFSRAIDLMLACTGKIIISGMGKSGIIGQKIAATLSSTGTTAIFLHPAEAAHGDLGVVSEGDTVICLSKSGMTEELNFILPALRERKATIIAFTGNPRSYLAMNADVVLDTGVEQEACPYDLAPTSSTTAMLAMGDALAICLMKKKNFTDQEFALTHPKGSLGKQLTMRVGDVMATGDALPVVSEDAMLSDLILEMTSKRYGVSGVVDAEGKLTGIFTDGDLRRLVQTGESFLDKKAVEVMTPNPKTVAPDMKAKACLELLETHRITQLMVCDEKRCPVGIVHIHDLVTLGL” the “soluble on expression in E. coli” value was “not soluble”. In the case of “MGSDKIHHHHHHMSESAESVELIKLPVSQLTLGMFVSAIDKNDKGQLAIANAGQIKHKDAILKLAKSGIKFVWVDAERSAEHCGLKKKTTNDSQTDNRKAPVSRDKQQAQAKVMLTEAKDLIRKVLSETFEGKAIEVAPFEALADTMIESVMLDADALKCMSALRSKDAYLLEHSVNVAFLLVTFGKYLQLDRDMLRQMAVGGILHDIGKIKVDNKVLHKPGKLTPEEFEHMKLHQVYELEIMNETTGLSQISKDICLMHHEKLDGRGYPRGLKDDEIPRHGRMSCIVDIFDALTATRCYKEAMSPAAAFKILLSLTPFHLDQQLVYEFIRCIGIYPVGSLVELSDGRIGIVWASKDRDALHPIVKCFYSLKVKRYTDVAMVDLLKSELYIERGVSPSSLDIDPTPFY”, the “soluble on expression in E. coli” value is reported as “not soluble”. With “MGSDKIHHHHHHMSETIQPGQTAVVLGAGGFLGSHVADALSNAGYKVRLFDRNPSPFRRSDQEMIIGDLMDISQVSNAVQGAAAVYNFAAIADIDEAHDNPLGTASINVLGNMHALEASRLAGVRRFIFASSVYVYSETGSFYRASKQAAERFTETYHERYGLEYTILRYGSLYGRRSDRRNGIYRMLHEAIQQRAITYRGSGESIREYIHVEDAARMSVQILAPEFANRHLILTGQEKLRIRDVMTMISEMLPWNVDLHYDQAKPGHHYQITPYAFQPRVGRKLVLNEHVDLGQGLLDCIQEIYQQISHGNEEGGTTPSSTDNQA” the “soluble on expression in E. coli” value was “not soluble”. With “MGSDKIHHHHHHMSHISTADIEQVILPSSRDLGGFSVRRALPAPMRQMVGPFIFLDSFGPVRFGEGEGIDTRPHPHIGLSTLTYLLEGELTHRDSERYVQAIRPGEVNVMVAGAGIVHSERTPEHQRATGGKLAGLQSWIALPKKSEETAPLFQHLDAGSLPTVSGEGIGMKLLAGNLHGRQSPATVFSDLFAAEVHLEAGARYRIDGEHVERAIFVVAGALEIVGQDGNFGQDRLLVFKPGSEIVVKATGPARFLAFGGEPLPEKRFIRWNFVATDQERIRHAADLWRERGFPGVPDDDEFIPLPENFR” the “soluble on expression in E. coli” value was “not soluble”.
